Assay results: PMC9985635

Target: p65 (UniProt Q04206)
Experiment: co-immunoprecipitation, immunoblot
Details: reference: wild-type RB; sites S249,T252

Which “binding against the reference” value does the source give for “RB (retinoblastoma protein) (from UniProt P06400) RB S249A/T252A” here?
Its value is “weaker”.
